Source: the supplement of paper PMC7125110
± gives the standard error. Fewer inactive variants are shown than the library holds.

B1: glmS ribozyme (parent)
chain: AUAAAAGCGCCAGAACUACAGAAAUGUAGUUGACGAGGAGGAGGUUUAUCGAAUUUUCGGCGGAUGCCUCCAAA

Legend:
Settings in all cases: with glucosamine-6-phosphate
[1] = variants of: B1; assay: self-cleavage kobs at 640 uM GlcN6P; higher = faster cleavage; RNA array
Outline: (§1)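 In situ transcription by E. coli RNA polymerase produced barcoded ribozyme variants on sequenced MiSeq chips, and a hybridised Cy3 probe tracked them at 37 °C. Glucosamine-6-phosphate was flowed in at 40 μM to 10 mM in HEPES/KCl/Mg(OAc)2 buffer. kcat and KM were taken from weighted Michaelis–Menten fits of kobs values from exponential decay fits.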

[2] = variants of: B1; assay: self-cleavage kobs at 2500 uM GlcN6P; higher = faster cleavage; RNA array
Outline: as §1

[3] = variants of: B1; assay: self-cleavage kobs at 10000 uM GlcN6P; higher = faster cleavage; RNA array
Outline: as §1

Row | Variant | self-cleavage kobs at 640 uM GlcN6P [1] | self-cleavage kobs at 2500 uM GlcN6P [2] | self-cleavage kobs at 10000 uM GlcN6P [3]
1 | AUAAAAGCGCCAGAACUACAGAAAUGUAGUUGAUCAGGAGGAGGUUUAUUGAAUUUUCGGCGGAUGACUCCAAA | < 1e-05 s⁻¹ | < 1e-05 s⁻¹ | –
2 | AUAAAAGCGCUAGAACUACAGAAAUGUAGUUGACGAGGAGCAGGUUUAUCGAAUUUUCGGCGGAUGUCUCCAAA | < 1e-05 s⁻¹ | – | –
3 | AUAAAAGCGCCAGAACUACAGAAAUGUAGUUGACGAAGAUGAGGUUUAUCGAAUGUUCGGCGGAUGCCUCCAAA | 6.13e-05 ± 2.5e-05 s⁻¹ | 6.99e-05 ± 1.6e-05 s⁻¹ | –
4 | AUAAAAACGCCAGGACUACAGAAAUGUAUUUGACGAGGAGGAGGUUUAUCGAAUUUUCGGCGGAUGCCUGCAAA | < 1e-05 s⁻¹ | < 1e-05 s⁻¹ | –
5 | AUAAAAGCGCCAGAACUACAGAAAUGUAGUUGACGAGGAGGAGGUGUAUCGAAUUUCCGGCGGAUGCCUCCAAA | < 1e-05 s⁻¹ | – | –
6 | AUAAAAGCGCCAGAAGUACAGAAAUGUAGUUGUCGAGAAGGAUGUUUAUCGAAUUUUCGGCGGAUGUCUCCAAA | < 1e-05 s⁻¹ | < 1e-05 s⁻¹ | –
7 | AUAAAAGCGCCAGAAUUACAGAAAUGUAGUUGACGUGGAGGAGGUUUAUCGAAUUUUCUGCGGUUGCCUCCAAA | < 1e-05 s⁻¹ | – | –
8 | AUAAAAGCGCCAGAACUACAGAAAUGUAGUUGACGAGGAGGAGGGUUAUCGAAUUUUCGGCGGAUGCCCCCAAA | 0.0407 ± 0.018 s⁻¹ | – | –
9 | AUAAAAGCGCCAGAACUACAGAAAUGUAGUUGACGAGGAGGUGCUUUAUCGAAUUUUCGGCGGAUGCCUCCAAA | < 1e-05 s⁻¹ | < 1e-05 s⁻¹ | < 1e-05 s⁻¹
10 | AUAAAAGCGUCAGAACUACAGAAAUGUAGUUAACGAGGAGGAGGUUUAUCGAAUUUUCAACGGAUGCCUCCAAA | < 1e-05 s⁻¹ | – | –
11 | AUAAAAGCGCCAGAACUACAGAAAUGUAGUUGAGGAGGAGCAGGUUUAUCGAAUUUUCGGCGGAUGCCUCUAAA | < 1e-05 s⁻¹ | – | –
12 | AUAAAAGCGCCAGGAGUACAGAAAUGUAGCUGACGAGGAGGAGGUUUAUCGAAUUUUCGGCGGAUGCCUCCAAA | 9.39e-05 ± 1.9e-05 s⁻¹ | – | –
13 | AUAAAAGCGCCAGAACUACAUAAAUGUAGAUGACGAGGAGGAGGUUUAUCGAAUUUUCGGCGGAUGCCUCCAAA | 0.00112 ± 0.00029 s⁻¹ | 0.000247 ± 0.00012 s⁻¹ | 0.00354 ± 0.00075 s⁻¹
14 | AUAAAGGCGCCAGAACUACAGAAAUGUAGAUGACGAGGAGAAGGUUUAUCGAAUUUUCGGCGGAUGCUUCCAAA | < 1e-05 s⁻¹ | – | –
15 | AUAAAAGCGCCAGAACUACAGAAAUGUAGUUGACGAGGAGGAGUUUUAUCGAAUUUUCGGCGGUUGCAUCCAAA | < 1e-05 s⁻¹ | – | –
16 | AUAAAAGCGCCAGAACUACAGAAAUGUAGUUGACGCGGAGGAGGUUUAUCAAAUUUUCGGCGGAUGCCUGCAAA | 9.36e-05 ± 3.3e-05 s⁻¹ | – | –
17 | AUAAAAGCGCCAGAACUACAGAAAUGUAGGUGACGAGGAGGAGGUUUAUCGAGUUUUCGGCGGAUGUCUCCAAA | 0.000643 ± 0.00013 s⁻¹ | 0.00132 ± 0.00032 s⁻¹ | –
18 | AUAAAAGCGCCAAAACUACAGAAAUGUAGUUGACGAGGAGGAGGUUUAUCGUAUUUUCGGCGGAUGCCUGCAAA | < 1e-05 s⁻¹ | – | –
19 | AUAAAAGCGCCGGAACUACAGAAAUUUAGUUGACGAGAAGGAGGUUUAUCGAAUUUUCGGCGGAUGCGUCAAAA | 0.000109 ± 2e-05 s⁻¹ | 7.22e-05 ± 2.4e-05 s⁻¹ | –
20 | AUAAAAGCGCCAGACCUACAGAAAUGUAGUUGACGCGGAGUAGGUUUAUCGAAUUUUCGGCGGAUGCCUCCAAA | < 1e-05 s⁻¹ | – | –
21 | AUAAAAGCGCCAGAACUACAGAAAUGUAGAUGCCGAGGAAGAGGUUUAUCGAAUUUUCGGCGGAUGCCUCUAAA | < 1e-05 s⁻¹ | – | –
22 | AUAAAAGCGCCAGAACUACAGAAAUGUAGUUGACGCGGAGGAGGUUUAUCGAAUUUUCGCCGGAUGCCUCCAAA | < 1e-05 s⁻¹ | – | –
23 | AUAAAAGCGCCAGAACUACAGAAAUGUAAUUUACGAGGAGGAGGUUUAUCGAAUUAUCGGCGGAUGCCUCCAAA | 8.76e-05 ± 2.8e-05 s⁻¹ | 0.000464 ± 0.00011 s⁻¹ | –
24 | AUAAAAGCGCCAGAACUACAGAAAUGUAGUUGGCGUGCAGGAGGUUUAUCGAAUUUUCGGCGGAUGCCUCCAAA | < 1e-05 s⁻¹ | – | –
25 | AUAAAAGCGCCAGAACUACAGAAAUGUAGUUGACGAGGAGGAGGUUUAUGGAAUUUUCGGUGGAUUCCUCCAAA | 7.98e-05 ± 2.8e-05 s⁻¹ | 0.00022 ± 8e-05 s⁻¹ | –
